From the RNAGym collection of RNA variant scans (doi:10.1021/acssynbio.7b00057)

B1: Pistol ribozyme (parent)
chain: GGGUCGUUGUUCCAUAAUCGCGUGGAUAUGGCACGCAAGUUUCUACCGGGCACCGUAAAUGUCCGACUGGAGCCGUUCGGGCGGCUAUAAACAGACCUCAGGCCCGAAGCGUGGCGGCACCUGCCGCCGGUGGUAAAAAAGAUCGGAAGAGCACACGUCU

Variants of: B1
Assay: aptazyme ON/OFF ratio, guanine; higher = stronger switching; co-transcriptional cleavage with and without guanine

First: GGGUCGAUGUCGCAUAAUCGCGUGGAUAUGGCACGCAAGUUUCUACCGGGCACCGUAAAUGUCCGACUGGAGCCGUUCGGGCGGCUAUAAACAGACCUCAGGCCCGAAGCGUGGCGGCACCUGCCGCCGGUGGUAAAAAAGAUCGGAAGAGCACACGUCU [U7A U11C C12G]
Second: GGGUCGUGUCUAUAUAAUCGCGUGGAUAUGGCACGCAAGUUUCUACCGGGCACCGUAAAUGUCCGACUGGAGCCGUUCGGGCGGCUAUAAACAGACCUCAGGCCCGAAGCGUGGCGGCACCUGCCGCCGGUGGUAAAAAAGAUCGGAAGAGCACACGUCU [U8G G9U U10C C12A C13U]
The “aptazyme ON/OFF ratio” value of the first is lower: 1.08 for the first, 1.15 for the second.

Going from GGGUCGGAUUCGUAUAAUCGCGUGGAUAUGGCACGCAAGUUUCUACCGGGCACCGUAAAUGUCCGACUGGAGCCGUUCGGGCGGCUAUAAACAGACCUCAGGCCCGAAGCGUGGCGGCACCUGCCGCCGGUGGUAAAAAAGAUCGGAAGAGCACACGUCU [U7G U8A G9U U11C C12G C13U] to GGGUCGCAUUUACAUAAUCGCGUGGAUAUGGCACGCAAGUUUCUACCGGGCACCGUAAAUGUCCGACUGGAGCCGUUCGGGCGGCUAUAAACAGACCUCAGGCCCGAAGCGUGGCGGCACCUGCCGCCGGUGGUAAAAAAGAUCGGAAGAGCACACGUCU [U7C U8A G9U C12A], the “aptazyme ON/OFF ratio” value falls from 1.08 to 1.06.

Compared with GGGUCGACCUGGGAUAAUCGCGUGGAUAUGGCACGCAAGUUUCUACCGGGCACCGUAAAUGUCCGACUGGAGCCGUUCGGGCGGCUAUAAACAGACCUCAGGCCCGAAGCGUGGCGGCACCUGCCGCCGGUGGUAAAAAAGAUCGGAAGAGCACACGUCU [U7A U8C G9C U11G C12G C13G], GGGUCGCCUAGCUAUAAUCGCGUGGAUAUGGCACGCAAGUUUCUACCGGGCACCGUAAAUGUCCGACUGGAGCCGUUCGGGCGGCUAUAAACAGACCUCAGGCCCGAAGCGUGGCGGCACCUGCCGCCGGUGGUAAAAAAGAUCGGAAGAGCACACGUCU [U7C U8C G9U U10A U11G C13U] is higher in “aptazyme ON/OFF ratio” value: 1.12 for the first, 1.31 for the second.

First: GGGUCGACUGAUGAUAAUCGCGUGGAUAUGGCACGCAAGUUUCUACCGGGCACCGUAAAUGUCCGACUGGAGCCGUUCGGGCGGCUAUAAACAGACCUCAGGCCCGAAGCGUGGCGGCACCUGCCGCCGGUGGUAAAAAAGAUCGGAAGAGCACACGUCU [U7A U8C G9U U10G U11A C12U C13G]
Second: GGGUCGGUGACAUAUAAUCGCGUGGAUAUGGCACGCAAGUUUCUACCGGGCACCGUAAAUGUCCGACUGGAGCCGUUCGGGCGGCUAUAAACAGACCUCAGGCCCGAAGCGUGGCGGCACCUGCCGCCGGUGGUAAAAAAGAUCGGAAGAGCACACGUCU [U7G U10A U11C C12A C13U]
The “aptazyme ON/OFF ratio” value of the first is lower: 1.09 for the first, 1.18 for the second.

Compared with GGGUCGGAGAUCGAUAAUCGCGUGGAUAUGGCACGCAAGUUUCUACCGGGCACCGUAAAUGUCCGACUGGAGCCGUUCGGGCGGCUAUAAACAGACCUCAGGCCCGAAGCGUGGCGGCACCUGCCGCCGGUGGUAAAAAAGAUCGGAAGAGCACACGUCU [U7G U8A U10A C13G], GGGUCGGUGAGCGAUAAUCGCGUGGAUAUGGCACGCAAGUUUCUACCGGGCACCGUAAAUGUCCGACUGGAGCCGUUCGGGCGGCUAUAAACAGACCUCAGGCCCGAAGCGUGGCGGCACCUGCCGCCGGUGGUAAAAAAGAUCGGAAGAGCACACGUCU [U7G U10A U11G C13G] is lower in “aptazyme ON/OFF ratio” value: 1.44 for the first, 1.14 for the second.

Compared with GGGUCGGCCUGGGAUAAUCGCGUGGAUAUGGCACGCAAGUUUCUACCGGGCACCGUAAAUGUCCGACUGGAGCCGUUCGGGCGGCUAUAAACAGACCUCAGGCCCGAAGCGUGGCGGCACCUGCCGCCGGUGGUAAAAAAGAUCGGAAGAGCACACGUCU [U7G U8C G9C U11G C12G C13G], GGGUCGCCACGUGAUAAUCGCGUGGAUAUGGCACGCAAGUUUCUACCGGGCACCGUAAAUGUCCGACUGGAGCCGUUCGGGCGGCUAUAAACAGACCUCAGGCCCGAAGCGUGGCGGCACCUGCCGCCGGUGGUAAAAAAGAUCGGAAGAGCACACGUCU [U7C U8C G9A U10C U11G C12U C13G] is higher in “aptazyme ON/OFF ratio” value: 1.12 for the first, 1.33 for the second.

First: GGGUCGGCGAUUAAUAAUCGCGUGGAUAUGGCACGCAAGUUUCUACCGGGCACCGUAAAUGUCCGACUGGAGCCGUUCGGGCGGCUAUAAACAGACCUCAGGCCCGAAGCGUGGCGGCACCUGCCGCCGGUGGUAAAAAAGAUCGGAAGAGCACACGUCU [U7G U8C U10A C12U C13A]
Second: GGGUCGAUUGGUUAUAAUCGCGUGGAUAUGGCACGCAAGUUUCUACCGGGCACCGUAAAUGUCCGACUGGAGCCGUUCGGGCGGCUAUAAACAGACCUCAGGCCCGAAGCGUGGCGGCACCUGCCGCCGGUGGUAAAAAAGAUCGGAAGAGCACACGUCU [U7A G9U U10G U11G C12U C13U]
The “aptazyme ON/OFF ratio” value of the first is lower: 1.36 for the first, 1.51 for the second.

Going from GGGUCGAAGGGCAAUAAUCGCGUGGAUAUGGCACGCAAGUUUCUACCGGGCACCGUAAAUGUCCGACUGGAGCCGUUCGGGCGGCUAUAAACAGACCUCAGGCCCGAAGCGUGGCGGCACCUGCCGCCGGUGGUAAAAAAGAUCGGAAGAGCACACGUCU [U7A U8A U10G U11G C13A] to GGGUCGUAUAUACAUAAUCGCGUGGAUAUGGCACGCAAGUUUCUACCGGGCACCGUAAAUGUCCGACUGGAGCCGUUCGGGCGGCUAUAAACAGACCUCAGGCCCGAAGCGUGGCGGCACCUGCCGCCGGUGGUAAAAAAGAUCGGAAGAGCACACGUCU [U8A G9U U10A C12A], the “aptazyme ON/OFF ratio” value rises from 1.07 to 1.34.

Going from GGGUCGAUGCAUUAUAAUCGCGUGGAUAUGGCACGCAAGUUUCUACCGGGCACCGUAAAUGUCCGACUGGAGCCGUUCGGGCGGCUAUAAACAGACCUCAGGCCCGAAGCGUGGCGGCACCUGCCGCCGGUGGUAAAAAAGAUCGGAAGAGCACACGUCU [U7A U10C U11A C12U C13U] to GGGUCGGUCGUGAAUAAUCGCGUGGAUAUGGCACGCAAGUUUCUACCGGGCACCGUAAAUGUCCGACUGGAGCCGUUCGGGCGGCUAUAAACAGACCUCAGGCCCGAAGCGUGGCGGCACCUGCCGCCGGUGGUAAAAAAGAUCGGAAGAGCACACGUCU [U7G G9C U10G C12G C13A], the “aptazyme ON/OFF ratio” value rises from 1.26 to 1.28.
